Consider five molecules from US12460006B2, “Antibodies against integrin alpha 11 beta 1” (Momenta Pharmaceuticals, Inc., priority 2019, dated 2025).

The test system of test [1] is Human Pulmonary Fibroblasts. As to the kind of experiment: Fibroblast-to-Myofibroblasts Transition (FMT), αSMA expression. Type of test: cell-based. The conditions noted are these: Yes/No. The gist of the method:
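Cells seeded at 20,000/well, serum-starved 24 h, then given TGFβ-1 with or without anti-α11 antibodies for 48 h; polyclonal anti-α11 and isotype IgG served as controls. Fixed, permeabilized cells were stained for αSMA and analysed by flow cytometry (single-cell gMFI). Values are normalized to untreated control as % inhibition.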

Test [2] has as its target T1, α11β1 expressed on the surface of CHO-K1 cells (Homo sapiens, UniProt Q9UKX5).
T1 construct: expressed in transfected cells; host or cells: CHO-K1
T1 sequence (Q9UKX5 23-1188): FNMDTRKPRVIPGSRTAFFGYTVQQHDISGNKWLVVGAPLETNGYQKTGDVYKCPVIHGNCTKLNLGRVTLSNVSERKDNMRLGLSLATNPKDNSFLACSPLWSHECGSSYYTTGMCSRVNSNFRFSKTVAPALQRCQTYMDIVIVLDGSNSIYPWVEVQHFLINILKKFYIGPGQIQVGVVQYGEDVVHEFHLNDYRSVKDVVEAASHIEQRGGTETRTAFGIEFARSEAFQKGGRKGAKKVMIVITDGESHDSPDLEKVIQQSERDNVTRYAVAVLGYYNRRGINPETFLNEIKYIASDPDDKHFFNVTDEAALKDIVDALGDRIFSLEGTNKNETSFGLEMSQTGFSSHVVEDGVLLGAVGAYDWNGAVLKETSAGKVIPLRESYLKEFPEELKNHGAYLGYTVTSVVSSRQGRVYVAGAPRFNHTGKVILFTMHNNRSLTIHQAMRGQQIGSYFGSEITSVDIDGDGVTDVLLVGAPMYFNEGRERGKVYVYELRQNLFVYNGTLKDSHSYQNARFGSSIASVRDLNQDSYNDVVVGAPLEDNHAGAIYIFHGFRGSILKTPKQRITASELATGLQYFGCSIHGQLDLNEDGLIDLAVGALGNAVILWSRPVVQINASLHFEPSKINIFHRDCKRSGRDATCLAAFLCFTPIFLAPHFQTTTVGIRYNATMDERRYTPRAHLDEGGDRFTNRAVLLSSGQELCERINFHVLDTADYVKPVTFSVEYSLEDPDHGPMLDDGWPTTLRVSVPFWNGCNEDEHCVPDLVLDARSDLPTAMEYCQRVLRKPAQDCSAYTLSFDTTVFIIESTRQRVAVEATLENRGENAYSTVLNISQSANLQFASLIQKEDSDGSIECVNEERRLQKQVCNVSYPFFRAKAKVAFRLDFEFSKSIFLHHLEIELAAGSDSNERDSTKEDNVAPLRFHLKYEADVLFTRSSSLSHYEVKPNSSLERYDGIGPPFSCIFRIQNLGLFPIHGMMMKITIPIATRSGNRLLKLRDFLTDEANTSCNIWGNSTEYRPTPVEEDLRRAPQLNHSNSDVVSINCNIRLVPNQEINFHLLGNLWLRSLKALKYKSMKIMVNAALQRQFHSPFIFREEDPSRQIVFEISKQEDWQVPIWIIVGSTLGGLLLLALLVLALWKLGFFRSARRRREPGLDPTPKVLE
As to the kind of experiment: FACS antibody binding to CHO-K1 cells expressing human α11. Particulars: binding Yes/No. The gist of the method: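 Wild-type or human α11-transfected CHO-K1 cells (endogenous β1) were incubated with antibody at varied concentrations for 30 min at 4° C, then secondary antibody (1:100) 30 min at 4° C. Cells were PFA-fixed and read by flow cytometry; binding EC50 estimated from FACS data.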

B1: 5A7: rabbit anti-α11β1 mAb; heavy chain SEQ ID NO: 193, light chain SEQ ID NO: 194 (antibody)
heavy: METGLRWLLLVAVLKGVQCQSLEESGGGLVQPEGSLTLACTASGFSFSSYYYICWVRQAPGTGLEWIGCINTGSDDTHYASWLKGRFTFSKASSTTLTLQMTSLTAADTATYFCARSSGSSDDAYDLWGPGTLVTVSSGQPKAPSVFPLAPCCGDTPSSTVTLGCLVKGYLPEPVTVTWNSGTLTNGVRTFPSVRQSSGLYSLSSVVSVTSSSQPVTCNVAHPATNTKVDKTVAPSTCSKPMCPPPELPGGPSVFIFPPKPKDTLMISRTPEVTCVVVDVSQDDPEVQFTWYINNEQVRTARPPLREQQFNSTIRVVSTLPIAHQDWLRGKEFKCKVHNKALPAPIEKTISKARGQPLEPKVYTMGPPREELSSRSVSLTCMINGFYPSDISVEWEKNGKAEDNYKTTPTVLDSDGSYFLYSKLSVPTSEWQRGDVFTCSVMHEALHNHYTQKSISRSPGK
light: MDTRAPTQLLGLLLLWLPGARCDVVMTQTPASVSEPVGGAVTIKCQASQSIGSNLAWYQHKPGQPPKLLIYFASSLASGVSSRFKGGRSGTQFTLTISDLECADAATYYCHCTYYPLSYVTFGGGTEVVVKGDPVAPTVLIFPPAADQVATGTVTIVCVANKYFPDVTVTWEVDGTTQTTGIENSKTPQNSADCTYNLSSTLTLTSTQYNSHKEYTCKVTQGTTSVVQSFNRGDC
With B1, the “Inhibition of FMT” value in test [1] is “No”. Besides, in test [2], the “CHO-K1 FACS” value is on record as “Yes”.

B2: 5D7: rabbit anti-α11β1 mAb; heavy chain SEQ ID NO: 191, light chain SEQ ID NO: 192 (antibody)
heavy: METGLRWLLLVAVLKGVQCQEQLVESGGGLVQPEGSLTLTCKASGFDFSSNAMCWVRQAPGKGLEWIACIYNGDGSTYYASWVNGRFTISKTSSTTVTLQMTSLTAADTATYFCARGLSNWNRDNLWGPGTLVTVSSGQPKAPSVFPLAPCCGDTPSSTVTLGCLVKGYLPEPVTVTWNSGTLTNGVRTFPSVRQSSGLYSLSSVVSVTSSSQPVTCNVAHPATNTKVDKTVAPSTCSKPMCPPPELPGGPSVFIFPPKPKDTLMISRTPEVTCVVVDVSQDDPEVQFTWYINNEQVRTARPPLREQQFNSTIRVVSTLPIAHQDWLRGKEFKCKVHNKALPAPIEKTISKARGQPLEPKVYTMGPPREELSSRSVSLTCMINGFYPSDISVEWEKNGKAEDNYKTTPTVLDSDGSYFLYSKLSVPTSEWQRGDVFTCSVMHEALHNHYTQKSISRSPGK
light: MDTRAPTQLLGLLLLWLPGATFAQVLTQTPSSVSAAVGGTATINCQASQSLYSPKNLAWYQQTPGQPPKLLIYSASKLASGVPSRFKGSGSGTQFTLTISGVQCDDAAIYYCQGEFSCTTAACFAFGGGTEVVVKGDPVAPTVLIFPPAADQVATGTVTIVCVANKYFPDVTVTWEVDGTTQTTGIENSKTPQNSADCTYNLSSTLTLTSTQYNSHKEYTCKVTQGTTSVVQSFNRGDC
Consider B2, for which the “Inhibition of FMT” value in test [1] was “No”. In test [2], the “CHO-K1 FACS” value is “Yes”.

B3: 4E1: rabbit anti-α11β1 mAb; heavy chain SEQ ID NO: 195, light chain SEQ ID NO: 196 (antibody)
heavy: METGLRWLLLVAVLKGVQCQSLEESGGDLVKPGTSLTLSCTASGFSFGSYYYMCWVRQAPGKGLEWIACIDVGSSGDTYYASWVNGRFTISKTSSTTVTLQMTSLTAADTATYFCARDDTAAGGFGNLELWGPGTLVTVSSGQPKAPSVFPLAPCCGDTPSSTVTLGCLVKGYLPEPVTVTWNSGTLTNGVRTFPSVRQSSGLYSLSSVVSVTSSSQPVTCNVAHPATNTKVDKTVAPSTCSKPMCPPPELPGGPSVFIFPPKPKDTLMISRTPEVTCVVVDVSQDDPEVQFTWYINNEQVRTARPPLREQQFNSTIRVVSTLPIAHQDWLRGKEFKCKVHNKALPAPIEKTISKARGQPLEPKVYTMGPPREELSSRSVSLTCMINGFYPSDISVEWEKNGKAEDNYKTTPTVLDSDGSYFLYSKLSVPTSEWQRGDVFTCSVMHEALHNHYTQKSISRSPGK
light: MDTRAPTQLLGLLLLWLPGARCAFELTQTPSSVSEPVGGTVTIKCQASQSIYSYFSWYQQKPGQPPKRLIYQASTLASGVPSRFKGSGSGTDFTLTISDLECADAATYYCQNNYGRGSGSYFFGFGGGTEVVVKGDPVAPTVLIFPPAADQVATGTVTIVCVANKYFPDVTVTWEVDGTTQTTGIENSKTPQNSADCTYNLSSTLTLTSTQYNSHKEYTCKVTQGTTSVVQSFNRGDC
On to B3, for which, in test [1], the “Inhibition of FMT” value is on record as “No”. In test [2], the “CHO-K1 FACS” value is “Yes”.

B4: 6G4: rabbit anti-α11β1 mAb; heavy chain SEQ ID NO: 181, light chain SEQ ID NO: 182 (antibody)
heavy: METGLRWLLLVAVLKGVQCQQQLEESGGGLVKPGGTLTLTCKASGVALNPYYYMCWVRQAPGKGLEWIACVDADSSGSTYYASWAKGRFTISKTSSTTVTLKMTSLTAADTATYFCARESVDYSSVGIGYVHGTDGLWGPGTLVTVSSGQPKAPSVFPLAPCCGDTPSSTVTLGCLVKGYLPEPVTVTWNSGTLTNGVRTFPSVRQSSGLYSLSSVVSVTSSSQPVTCNVAHPATNTKVDKTVAPSTCSKPMCPPPELPGGPSVFIFPPKPKDTLMISRTPEVTCVVVDVSQDDPEVQFTWYINNEQVRTARPPLREQQFNSTIRVVSTLPIAHQDWLRGKEFKCKVHNKALPAPIEKTISKARGQPLEPKVYTMGPPREELSSRSVSLTCMINGFYPSDISVEWEKNGKAEDNYKTTPTVLDSDGSYFLYSKLSVPTSEWQRGDVFTCSVMHEALHNHYTQKSISRSPGK
light: MDTRAPTQLLGLLLLWLPGARCADIVVTQTPSSVSAAVGGTVTIKCQASQSISNYFSWYQQKPGQPPKLLIYRASTLASGVPSRFKGSGSGTEFTLTISDLECADAATYYCQCTYGRSNSNFFYGFGGGTEVVVKGDPVAPTVLIFPPAADQVATGTVTIVCVANKYFPDVTVTWEVDGTTQTTGIENSKTPQNSADCTYNLSSTLTLTSTQYNSHKEYTCKVTQGTTSVVQSFNRGDC
Consider B4, for which the “Inhibition of FMT” value in test [1] is “No”. Further, the “CHO-K1 FACS” value in test [2] is on record as “Yes”.

B5: 6C7: rabbit anti-α11β1 mAb; heavy chain SEQ ID NO: 185, light chain SEQ ID NO: 186 (antibody)
heavy: METGLRWLLLVAVLKGVQCQQQLEESGGGLVKPGGTLTLTCKASGIDFSSYYYMCWVRQAPGKGLELIVCIYTSSGGTWYASWVNGRLTISRSTSLNTVDLKMTSLTAADTATYFCARGVYSGSSDYPTRLDLWGQGTLVTVSLGQPKAPSVFPLAPCCGDTPSSTVTLGCLVKGYLPEPVTVTWNSGTLTNGVRTFPSVRQSSGLYSLSSVVSVTSSSQPVTCNVAHPATNTKVDKTVAPSTCSKPMCPPPELPGGPSVFIFPPKPKDTLMISRTPEVTCVVVDVSQDDPEVQFTWYINNEQVRTARPPLREQQFNSTIRVVSTLPIAHQDWLRGKEFKCKVHNKALPAPIEKTISKARGQPLEPKVYTMGPPREELSSRSVSLTCMINGFYPSDISVEWEKNGKAEDNYKTTPTVLDSDGSYFLYSKLSVPTSEWQRGDVFTCSVMHEALHNHYTQKSISRSPGK
light: MDTSTSTALLGLLLLWLTGARCAIEMTQSPPSLSASVGETVRIRCLASEDIYSGISWYQQKPEKPPTLLISGASNLESGVPPRFSGGGSGTDYTLTIGGVQAEDVATYYCLGGYSFSSTGLTFGAGTKVEIKRDPVAPSVLLFPPSKEELTTGTATIVCVANKYFPDVTVTWEVDGTTQTTGIENSKTPQNSADCTYNLSSTLTLTSTQYNSHKEYTCKVTQGTTSVVQSFNRGDC
With B5, the “Inhibition of FMT” value in test [1] is listed as “No”. The “CHO-K1 FACS” value in test [2] is given as “Yes”.
